Reference: paper PMC8926151 (Science (New York, N.Y.), 2021)

B1: human GPR158 receptor (receptor, UniProt Q5T848 24-1215, looked up)
chain: ASRDPQGRPDSPRERTPKGKPHAQQPGRASASDSSAPWSRSTDGTILAQKLAEEVPMDVASYLYTGDSHQLKRANCSGRYELAGLPGKWPALASAHPSLHRALDTLTHATNFLNVMLQSNKSREQNLQDDLDWYQALVWSLLEGEPSISRAAITFSTDSLSAPAPQVFLQATREESRILLQDLSSSAPHLANATLETEWFHGLRRKWRPHLHRRGPNQGPRGLGHSWRRKDGLGGDKSHFKWSPPYLECENGSYKPGWLVTLSSAIYGLQPNLVPEFRGVMKVDINLQKVDIDQCSSDGWFSGTHKCHLNNSECMPIKGLGFVLGAYECICKAGFYHPGVLPVNNFRRRGPDQHISGSTKDVSEEAYVCLPCREGCPFCADDSPCFVQEDKYLRLAIISFQALCMLLDFVSMLVVYHFRKAKSIRASGLILLETILFGSLLLYFPVVILYFEPSTFRCILLRWARLLGFATVYGTVTLKLHRVLKVFLSRTAQRIPYMTGGRVMRMLAVILLVVFWFLIGWTSSVCQNLEKQISLIGQGKTSDHLIFNMCLIDRWDYMTAVAEFLFLLWGVYLCYAVRTVPSAFHEPRYMAVAVHNELIISAIFHTIRFVLASRLQSDWMLMLYFAHTHLTVTVTIGLLLIPKFSHSSNNPRDDIATEAYEDELDMGRSGSYLNSSINSAWSEHSLDPEDIRDELKKLYAQLEIYKRKKMITNNPHLQKKRCSKKGLGRSIMRRITEIPETVSRQCSKEDKEGADHGTAKGTALIRKNPPESSGNTGKSKEETLKNRVFSLKKSHSTYDHVRDQTEESSSLPTESQEEETTENSTLESLSGKKLTQKLKEDSEAESTESVPLVCKSASAHNLSSEKKTGHPRTSMLQKSLSVIASAKEKTLGLAGKTQTAGVEERTKSQKPLPKDKETNRNHSNSDNTETKDPAPQNSNPAEEPRKPQKSGIMKQQRVNPTTANSDLNPGTTQMKDNFDIGEVCPWEVYDLTPGPVPSESKVQKHVSIVASEMEKNPTFSLKEKSHHKPKAAEVCQQSNQKRIDKAEVCLWESQGQSILEDEKLLISKTPVLPERAKEENGGQPRAANVCAGQSEELPPKAVASKTENENLNQIGHQEKKTSSSEENVRGSYNSSNNFQQPLTSRAEVCPWEFETPAQPNAGRSVALPASSALSANKIAGPRKEEIWDSFKV
B2: RGS7-Gβ5 signaling complex (complex)
chain 1: MAQGNNYGQTSNGVADESPNMLVYRKMEDVIARMQDEKNGIPIRTVKSFLSKIPSVFSGSDIVQWLIKNLTIEDPVEALHLGTLMAAHGYFFPISDHVLTLKDDGTFYRFQTPYFWPSNCWEPENTDYAVYLCKRTMQNKARLELADYEAESLARLQRAFARKWEFIFMQAEAQAKVDKKRDKIERKILDSQERAFWDVHRPVPGCVNTTEVDIKKSSRMRNPHKTRKSVYGLQNDIRSHSPTHTPTPETKPPTEDELQQQIKYWQIQLDRHRLKMSKVADSLLSYTEQYLEYDPFLLPPDPSNPWLSDDTTFWELEASKEPSQQRVKRWGFGMDEALKDPVGREQFLKFLESEFSSENLRFWLAVEDLKKRPIKEVPSRVQEIWQEFLAPGAPSAINLDSKSYDKTTQNVKEPGRYTFEDAQEHIYKLMKSDSYPRFIRSSAYQELLQAKKK
chain 2: GLHENETLASLKSEAESLKGKLEEERAKLHDVELHQVAERVEALGQFVMKTRRTLKGHGNKVLCMDWCKDKRRIVSSSQDGKVIVWDSFTTNKEHAVTMPCTWVMACAYAPSGCAIACGGLDNKCSVYPLTFDKNENMAAKKKSVAMHTNYLSACSFTNSDMQILTASGDGTCALWDVESGQLLQSFHGHGADVLCLDLAPSETGNTFVSGGCDKKAMVWDMRSGQCVQAFETHESDINSVRYYPSGDAFASGSDDATCRLYDLRADREVAIYSKESIIFGASSVDFSLSGRLLFAGYNDYTINVWDVLKGSRVSILFGHENRVSTLRVSPDGTAFCSGSWDHTLRVWA

Columns and labels:
cryo-EM structure = biological target: the molecule itself; experiment: cryo-EM structure
human GPR158 receptor = biological target: B1; experiment: cryo-EM structure

| stoichiometry N (human GPR158 receptor) | Binder | stoichiometry N (cryo-EM structure) |
| --- | --- | --- |
| – | B1 | 2 |
| 1 RGS7-Gβ5 complex per GPR158 homodimer | B2 | – |
